Experiments:
Type in all cases: cell-based, Yarrowia
olivetolic acid [1] = test: MPT4.1 with and without GPS1.1 fusion vs MPT4 fusion, in vivo assay (Example 5); settings: 3 mM olivetolic acid, 48 h quench
Protocol: As described below, plasmids pCL-SE-0337.MPT4.1 and pCL-SE-0753 were transformed into strain sCL-SE-0128. Multiple colonies per transformation were precultured for 24 h in YNB containing glucose (2%), casamino acids (0.5%), and MES (100 mM pH 6.5). Pre-culture was used to inoculate assay medium comprised of YNB containing glucose (6%), casamino acids (0.5%), MES (100 mM pH 6.5), and olivetolic acid (3 mM). Cultures were quenched with equal volume of ethanol after 48 h total growth and assayed for CBGA and FCBGA. Averages and standard deviations were calculated from replicates.
(§1) Overnight YPD (10 g/L yeast extract, 20 g/L peptone, 2% dextrose) cultures were inoculated from glycerol stocks of the appropriate strain and grown at 30° C. with 250 rpm shaking. Once cultures had reached an OD600 of 4-6, cultures were centrifuged at 500×g for 5 min, supernatants were discarded, and cell pellets were resuspended in equal volume of water. Resuspended cells were centrifuged at 500×g for 5 min, supernatants were discarded, and cells were resuspended in a volume (75 μL×OD×Vculture) of transformation cocktail (45% PEG-400, 0.1 M LiAc, 0.1 M DTT, and 25 ug/100 μL SS Salmon Sperm DNA). For each transformation, >1 μg of plasmid DNA was added to 55 μL cells/transformation cocktail and vortexed for 2 s. Transformations were incubated at 39° C. for 1 h with 250 rpm shaking. Transformations were resuspended in 750 μL YPD with 1 M sorbitol and recovered at 30° C. overnight with 250 rpm shaking. The next day, transformations were centrifuged at 500×g for 5 min, supernatants were discarded, and cell pellets were resuspended in 750 YPD. Resuspended transformations were plated on YPD with appropriate selection or YNBD (6.71 g/L yeast nitrogen base+nitrogen, 0.5% casamino acids, 2% dextrose) agar plates and grown at 30° C. for 2 days. Individual colonies were patched onto YPD plates with appropriate selection or YNBD plates and grown at 30° C. overnight. Patches were used to inoculate 0.5 mL YPD with appropriate selection or YNBD precultures in 96 w blocks and grown at 30° C. for 24-48 h with 1000 rpm shaking. For assays, 0.5 mL YPD with appropriate selection or YNBD cultures containing substrate were inoculated with 2 μL from precultures and grown at 30° C. for 2-4 days with 1000 rpm shaking with 2% glucose added every 24 h. Assay cultures were quenched by addition of 0.5 mL ethanol with 0.2% formic acid and 0.5 mg/mL pentyl-benzoic acid. Precipitates were pelleted by centrifuging at 4600×g for 10 min and then 200 μL was transferred to fresh plates, sealed, and analyzed via HPLC.
(§2) All samples were quenched with equal volume of EtOH containing 0.2 mg/mL internal standard (3,5-Diisopropyl-2-hydroxybenzoic acid CAS #2215-21-6) centrifuged, and clarified solutions were analyzed by HPLC-MS
(§3) • Column: 2.1×50 mm COSMOCORE PBr (Nacalai USA, Inc.) • Mobile Phase: A; 0.1% formic acid in water, B; 0.1% formic acid in acetonitrile • Flow: 0.45 mL/min • Temp: % 50 Celsius • Gradient: 20%B at 0 min, 70%B at 2.3 min, 89% B at 4.2 min, 20% B at 4.3 min, 20%B at 6 min

olivetolic acid [2] = test: Linkers for GPS1.1-MPT4 fusions, in vivo assay (Example 6); settings: 1 mM olivetolic acid, 72 h quench
Protocol: As described in detail below, plasmids pCL-SE-0380 (MPT4), pCL-SE-0406, pCL-SE-0435, and pCL-SE-0437 were transformed into strain sCL-SE-0128. Four separate colonies per transformation were precultured for 24 h in YNB containing glycerol (2%), casamino acids (0.5%), and MES (100 mM pH 6.5). Pre-culture was used to inoculate assay medium comprised of YNB containing glycerol (2%), casamino acids (0.5%), MES (100 mM pH 6.5), and olivetolic acid (1 mM). Cultures were quenched after 72 h total growth by mixing with equal volume of EtOH. Enzymes produced CBGA and FCBGA. Averages and standard deviations were calculated from replicates.
However, sCL-SE-0128 expresses HMGR and GPS1.1 to increase intracellular GPP levels for prenylation of OA to CBGA. The plasmids that were transformed contain either a gene expressing a prenyl-transferase (pCL-SE-0380 (MPT4)) or a gene expressing a fusion between GPS1.1 and a prenyl-transferase with different linker sequences.
as §1, §2, §3

olivetolic acid [3] = test: Fusions of different GPSs with MPT4, in vivo assay (Example 7); settings: 1 mM olivetolic acid, 72 h quench
Protocol: As described below, plasmids pCL-SE-0337, 0406, 0452 and 0453 were transformed into strain sCL-SE-0128. Multiple colonies per transformation were precultured for 24 h in YNB containing glycerol (2%), casamino acids (0.5%), and MES (100 mM pH 6.5). Pre-culture was used to inoculate assay medium comprised of YNB containing glycerol (2%), casamino acids (0.5%), MES (100 mM pH 6.5), and olivetolic acid (1 mM). Cultures were quenched after 72 h total growth and assayed for CBGA and F-CBGA. Averages and standard deviations were calculated from replicates.
However, sCL-SE-0128 expresses HMGR and GPS1.1 to increase intracellular GPP levels for prenylation of OA to CBGA. The plasmids that were transformed contain a gene expressing a fusion between two different GPSs and a prenyl-transferase. The same linker is used for all constructs. […] Additionally, as illustrated by GPS2 (pCL-SE-0453), certain GPS-MPT combinations result in very high CBGA/ FCBGA ratios.
as §1, §2, §3

divarinic acid = test: MPT fusions with GPS1.1 vs unfused MPTs, DVA feed (Example 9, Table 11); settings: 2 mM divarinic acid, 2% glucose, quenched after 48 h; strain sCL-SE-0128
How it was run: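 Strain sCL-SE-0128 transformed with MPT or fused-MPT plasmids, several colonies each, precultured 48 h in YNB/glucose/casamino acids/MES pH 6.5. Assay medium carried 2 mM divarinic acid; cultures quenched with ethanol at 48 h total growth and CBGVA and FCBGVA quantified by HPLC-MS against internal standard, averaged over replicates.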

[4] = 2% glycerol, strain sCL-SE-0128

B1: GPS1.1-F11-MPT4: fusion of GPS1.1 and MPT4 via F11 linker, SEQ ID NO: 16 (protein)
chain: MSKAKFESVFPRISEELVQLLRDEGLPQDAVQWFSDSLQYNCVGGKLNRGLSVVDTYQLLTGKKELDDEEYYRLALLGWLIELLQAFWLVSDDIMDESKTRRGQPCWYLKPKVGMIAIWDAFMLESGIYILLKKHFRQEKYYIDLVELFHDISFKTELGQLVDLLTAPEDEVDLNRFSLDKHSFIVRYKTAYYSFYLPVVLAMYVAGITNPKDLQQAMDVLIPLGEYFQVQDDYLDNFGDPEFIGKIGTDIQDNKCSWLVNKALQKATPEQRQILEDNYGVKDKSKELVIKKLYDDMKIEQDYLDYEEEVVGDIKKKIEQVDESRGFKKEVLNAFLAKIYKRQKGGAEAAAKEAAAKAGGSGGGSGGGGSGGSGGGGSGGGGSMSDNSIATKILNFGHTCWKLQRPYVVKGMISIACGLFGRELFNNRHLFSWGLMWKAFFALVPILSFNFFAAIMNQIYDVDIDRINKPDLPLVSGEMSIETAWILSIIVALTGLIVTIKLKSAPLFVFIYIFGIFAGFAYSVPPIRWKQYPFTNFLITISSHVGLAFTSYSATTSALGLPFVWRPAFSFIIAFMTVMGMTIAFAKDISDIEGDAKYGVSTVATKLGARNMTFVVSGVLLLNYLVSISIGIIWPQVFKSNIMILSHAILAFCLIFQTRELALANYASAPSRQFFEFIWLLYYAEYFVYVFI
modifications: GPS1.1-F11-MPT4, geranyl diphosphate synthase, membrane-bound prenyltransferase fusion protein
CBGA (olivetolic acid [1]; 6% glucose, strain sCL-SE-0128): 326 ± 16 µM
FCBGA (olivetolic acid [1]; 6% glucose, strain sCL-SE-0128): 62 ± 2 µM
CBGA/FCBGA (olivetolic acid [1]; product ratio): 5.2
CBGA (olivetolic acid [2]; [4]): 393 ± 41 µM
FCBGA (olivetolic acid [2]; [4]): 60 ± 5 µM
CBGA/FCBGA (olivetolic acid [2]; product ratio): 6.6
CBGA (olivetolic acid [3]; [4]): 376 ± 41 µM
FCBGA (olivetolic acid [3]; [4]): 51 ± 5 µM
CBGA/FCBGA (olivetolic acid [3]; product ratio): 7.4
CBGVA (divarinic acid): 45 ± 2 µM
FCBGVA (divarinic acid): 0 ± 0 µM

— patent publication US20240228986A1, “ENGINEERED CELLS, ENZYMES, AND METHODS FOR PRODUCING CANNABINOIDS” (priority 2021, published 2024)
